Measurements reported in patent US20210130474A1 (DRAGONFLY THERAPEUTICS, published 2021).

Legend:
[1] = biological target: T1, CAIX expressed on human renal cell carcinoma line A498 (human, UniProt Q16790 38-459); assay: cell-based or functional assay
[2] = biological target: T1, CAIX expressed on human renal cell …; assay: flow cytometry on A498 cells, MFI fold over background
Text: Human renal cell carcinoma line A498 expressing CAIX was used to assay the binding of TriNKETs to the tumor associated antigen CAIX.

Row | binding result [2] | Binder | specific lysis of A498 target cells by rested KHYG-1 cells (DELFIA cytotoxicity assay), increase over co-culture without TriNKET [1]
1 |  | A49-TriNKET-CAIX (ADI-27749 and a CAIX-binding domain) (bispecific antibody, V domains shown) VH 1: EVQLVESGGGLVKPGGSLRLSCAASGFTFSSYSMNWVRQAPGKGLEWVSSISSSSSYIYYADSVKGRFTISRDNAKNSLYLQMNSLRAEDTAVYYCARGAPMGAAAGWFDPWGQGTLVTVSS VL 1: DIQMTQSPSSVSASVGDRVTITCRASQGISSWLAWYQQKPGKAPKLLIYAASSLQSGVPSRFSGSGSGTDFTLTISSLQPEDFATYYCQQGVSFPRTFGGGTKVEIK VH 2: QVELVESGGGLVQPGGSLRLSCAASGFTFSSYGMSWVRQAPGKGLEWVSGISSLGSTTYYADSVKGRFTISRDNSKNTLYLQMNSLRAEDTAVYYCARTGSPGTFMHGDHWGQGTLVTVSS VL 2: DIQMTQSPSSLSASVGDRVTITCRASQDINNYLSWYQQKPGKAPKLLIYGASNLQSGVPSRFSGSGSGTDFTLTISSLQPEDFAVYYCQQYYGRPTTFGQGTKVEIK | ~20%
2 |  | E79-TriNKET-CAIX (ADI-29379 and a CAIX-binding domain) (bispecific antibody, V domains shown) VH 1: QVQLVQSGAEVKKPGASVKVSCKASGYTFTSYYMHWVRQAPGQGLEWMGIINPSGGSTSYAQKFQGRVTMTRDTSTSTVYMELSSLRSEDTAVYYCARGAPNYGDTTHDYYYMDVWGKGTTVTVSS VL 1: EIVMTQSPATLSVSPGERATLSCRASQSVSSNLAWYQQKPGQAPRLLIYGASTRATGIPARFSGSGSGTEFTLTISSLQSEDFAVYYCQQYDDWPFTFGGGTKVEIK VH 2: QVELVESGGGLVQPGGSLRLSCAASGFTFSSYGMSWVRQAPGKGLEWVSGISSLGSTTYYADSVKGRFTISRDNSKNTLYLQMNSLRAEDTAVYYCARTGSPGTFMHGDHWGQGTLVTVSS VL 2: DIQMTQSPSSLSASVGDRVTITCRASQDINNYLSWYQQKPGKAPKLLIYGASNLQSGVPSRFSGSGSGTDFTLTISSLQPEDFAVYYCQQYYGRPTTFGQGTKVEIK | ~20%
3 | binds | F47-TriNKET-CAIX (ADI-29447 and a CAIX-binding domain) (bispecific antibody, V domains shown) VH 1: QVQLQQWGAGLLKPSETLSLTCAVYGGSFSGYYWSWIRQPPGKGLEWIGEIDHSGSTNYNPSLKSRVTISVDTSKNQFSLKLSSVTAADTAVYYCARARGPWSFDPWGQGTLVTVSS VL 1: DIQMTQSPSTLSASVGDRVTITCRASQSISSWLAWYQQKPGKAPKLLIYKASSLESGVPSRFSGSGSGTEFTLTISSLQPDDFATYYCQQYDTFITFGGGTKVEIK VH 2: QVELVESGGGLVQPGGSLRLSCAASGFTFSSYGMSWVRQAPGKGLEWVSGISSLGSTTYYADSVKGRFTISRDNSKNTLYLQMNSLRAEDTAVYYCARTGSPGTFMHGDHWGQGTLVTVSS VL 2: DIQMTQSPSSLSASVGDRVTITCRASQDINNYLSWYQQKPGKAPKLLIYGASNLQSGVPSRFSGSGSGTDFTLTISSLQPEDFAVYYCQQYYGRPTTFGQGTKVEIK | 
4 |  | A44-TriNKET-CAIX (ADI-27744 and a CAIX-binding domain) (bispecific antibody, V domains shown) VH 1: not shown VL 1: DIQMTQSPSSVSASVGDRVTITCRASQGIDSWLAWYQQKPGKAPKLLIYAASSLQSGVPSRFSGSGSGTDFTLTISSLQPEDFATYYCQQGVSYPRTFGGGTKVEIK VH 2: QVELVESGGGLVQPGGSLRLSCAASGFTFSSYGMSWVRQAPGKGLEWVSGISSLGSTTYYADSVKGRFTISRDNSKNTLYLQMNSLRAEDTAVYYCARTGSPGTFMHGDHWGQGTLVTVSS VL 2: DIQMTQSPSSLSASVGDRVTITCRASQDINNYLSWYQQKPGKAPKLLIYGASNLQSGVPSRFSGSGSGTDFTLTISSLQPEDFAVYYCQQYYGRPTTFGQGTKVEIK | ~20%
